Source: PMC9266650 (2022)
Like-named read-outs stand apart in the source and are kept apart here. One block for each binder: values may come before it.

Columns and labels:
[1] = target: T1, T148-ADP-ribosylated-actin (100% TccC3-ADP-ribosylated actin) ( (purified from rabbit or …, UniProt P68135 1-377))
[2] = target: T2, Skeletal actin, unmodified (0% ADPR-actin control) ( (purified from rabbit or …, UniProt P68135 1-377))
[3] = target: T1, T148-ADP-ribosylated-actin (100% …); assay: FP
[4] = target: T2, Skeletal actin, unmodified (0% …); assay: FP

Kd [1]: 331 nM
Kd [2]: 21.6 nM
B1: Actin-depolymerizing factor (natural protein)
chain: MASGVQVADEVCRIFYDMKVRKCSTPEEIKKRKKAVIFCLSADKKCIIVEEGKEILVGDVGVTITDPFKHFVGMLPEKDCRYALYDASFETKESRKEELMFFLWAPELAPLKSKMIYASSKDAIKKKFQGIKHECQANGPEDLNRACIAEKLGGSLIVAFEGCPV

Kd [3]: 2440 nM
Binder: SDKPDMAEIEKFDKSKLKKTETQEKNPLPSKETIEQEKQAGES (not fully specified; ADP-ribose on threonine-148 (T148))

Kd [4]: 380 nM
Binder: SDKPDMAEIEKFDKSKLKKTETQEKNPLPSKETIEQEKQAGES (not fully specified)
